Test results: patent US12540197B2, “Anti-tissue factor antibodies and antibody conjugates, compositions comprising anti-tissue factor antibodies or antibody conjugates, and methods of making and using anti-tissue factor antibodies and antibody conjugates” (SUTRO BIOPHARMA, INC., priority 2023, dated 2026)

Assays:
cynomolgus TF = test: Biacore off-rate and kinetic binding, cynomolgus TF; conditions: Table 12; 25° C., 1:1 Langmuir
Procedure: (§1) Anti-Fc polyclonal antibodies were immobilized onto a CM4 chip (Cytiva #BR100534) using amine coupling chemistry (Human Antibody Capture Kit, Cytiva #BR100839). The immobilization steps were carried out at a flow rate of 25 μL/min in 1×HBS-EP+buffer (Cytiva #BR100669). The sensor surfaces were activated for 7 min with a mixture of N-hydroxysuccinimide (NHS, 0.05 M) and 1-ethyl-3-(3-dimethylaminopropyl)-carbodiimide (EDC, 0.2 M). The anti-Fc polyclonal antibodies were injected over all 4 flow cells at a concentration of 25 μg/mL in 10 mM sodium acetate, pH 4.5, for 7 min. Ethanolamine (1 M, pH 8.5) was injected for 7 min to block any remaining activated groups. Approximately 6,000 response units (RU) of capture antibody was immobilized on each flow cell.
(§2) Off-rate and kinetic binding experiments were performed at 25° C. using 1×HBS-EP+buffer. Antibodies were injected over the anti-Fc surface at a concentration of 3 μg/mL for 12 seconds at a flow rate of 10 μL/min on flow cells 2, 3 and 4, followed by a buffer wash for 30 seconds at the same flow rate. Single point off-rate analysis was carried out using an antigen concentration of 100 nM. […] After capturing ligand (antibody) on the anti-Fc surface, the analyte (human TF, Lake Pharma; cynomolgus TF, Sino Bio #90885-C08H; mouse TF, R&D Systems #3178-PA) was bound for 180 seconds, followed by a 420 second dissociation phase at a flow rate of 50 μL/min. Between each ligand capture and analyte binding cycle, regeneration was carried out using 2 injections of 10 mM glycine pH 2.0 for 30 seconds at 30 μL/min, followed by a 30 second buffer wash step.
(§3) The data were fit with the Biacore T200 Evaluation software, using a 1:1 Langmuir binding model. KD (affinity, nM) was determined as a ratio of the kinetic rate constants calculated from the fits of the association and dissociation phases.
(§4) Anti-Fc polyclonal antibodies were immobilized onto a CM4 chip (Cytiva #BR100534) using amine coupling chemistry (Human Antibody Capture Kit, Cytiva #BR100839). The immobilization steps were carried out at a flow rate of 25 μL/min in 1×HBS-EP+buffer (Cytiva #BR100669). The sensor surfaces were activated for 7 min with a mixture of NHS (0.05 M) and EDC (0.2 M). The Anti-Fc antibodies were injected over all 4 flow cells at a concentration of 25 ug/ml in 10 mM sodium acetate, pH 4.5, for 7 min. Ethanolamine (1 M, pH 8.5) was injected for 7 min to block any remaining activated groups. Approximately 6,000 response units (RU) of capture antibody was immobilized on each flow cell. Off-rate and kinetic binding experiments were performed at 25° C. using 1×HBS-EP+buffer. Antibodies or ADCs were injected over the anti-Fc surface at a concentration of 3 μg/mL for 12 seconds at a flow rate of 10 μL/min on flow cells 2, 3 and 4, followed by a buffer wash for 30 seconds at the same flow rate. […] After capturing ligand (antibody) on the anti-Fc surface, the analyte (human TF, Lake Pharma; cynomolgus TF, Sino Bio #90885-C08H; mouse TF, R&D Systems #3178-PA) was bound for 180 seconds, followed by a 420 second dissociation phase at a flow rate of 50 μL/min. Between each ligand capture and analyte binding cycle, regeneration was carried out using 2 injections of 10 mM Glycine pH 2.0 for 30 seconds at 30 μL/min, followed by a 30 second buffer wash step. The data was fit with the Biacore T200 Evaluation software, using a 1-1 Langmuir binding model. KD (affinity, nM) was determined as a ratio of the kinetic rate constants calculated from the fits of the association and dissociation phases.

human TF = target: T1, human TF (Homo sapiens, UniProt P13726); test: Biacore off-rate and kinetic binding, human TF; conditions: Table 12; 25° C., 1:1 Langmuir
T1 construct: purchased Lake Pharma
Procedure: as §1, §2, §3, §4

[1] = system: primary human keratinocytes; test: Cell binding on primary adult human keratinocytes (flow cytometry); conditions: Table 29, primary human keratinocytes
Procedure: Since TF is expressed in human skin, anti-TF antibody 2900-A02 and 2842-B01-Hc3/Lc2 were tested in cell binding assay on primary adult human keratinocyte cells purchased from Thermo Fisher Scientific. Keratinocytes were cultured in defined keratinocyte culture medium (EpiLife Medium, Thermo Fisher Scientific) supplemented with growth supplement S7 (S0175 from Thermo Fisher Scientific) and Penicillin/Streptomycin on plates coated with keratinocyte coating matrix (Thermo Fisher Scientific).
To evaluate antibody binding activity of the anti-TF antibodies on the adult primary keratinocytes, a total of 100,000 keratinocytes per well were incubated on ice with serial dilutions of anti-TF antibodies in FACS buffer (PBS buffer supplemented with 1% bovine serum albumin, 0.05% sodium azide) for 60 minutes. Cells were washed twice with ice-cold FACS buffer and then incubated with 5 microgram/mL Alexa 647 labeled donkey anti-human Fc antibody (Jackson ImmunoResearch, West Grove, PA) on ice for another 60 minutes. Unstained cells and cells stained with secondary antibodies alone were used as controls. Samples were then washed twice using FACS buffer and analyzed using an Attune flow cytometer (Thermo Fisher). Geometric mean fluorescence intensities were fitted using non-linear regression analysis with one site specific binding equation on GraphPad Prism.

HEK293T = test: FACS cell-binding assay on parental HEK293T cells; conditions: Table 16, parental cells
From the text: HEK293T, BxPC3 cells (TF positive) and NCI-H1703 (TF negative) cells were obtained from ATCC (American Type Culture Collection) and maintained in DMEM:F12 (1:1), high glucose (Corning) supplemented with 10% heat-inactivated fetal bovine serum (ThermoScientific), 1× Penicillin/Streptomycin (Corning) and 2 mmol glutamax (Thermo Fisher Scientific). To generate cells that stably expressing human tissue factor (HEK293T-humanTF) or cynomolgus tissue factor (HEK293T-cynoTF), HEK293T cells were transfected with plasmid vectors that contain the corresponding protein sequence and stable clones were selected with puromycin.
For a fluorescence-activated cell sorting (FACS) cell-binding assay, cells were collected by Accutase and counted by the Vi-CELL Cell Viability Analyzersharvested and, then re-suspended in FACS buffer (DPBS buffer supplemented with 1% bovine serum albumin). A total of 200,000 cells in 100 μL were incubated on ice with 100 μL of anti-TF antibodies in each well of a 96-well plate. Cells were washed twice with ice-cold FACS buffer and then incubated on ice for 60 mins with 5 μg/mL Alexa 647-labeled donkey anti-human Fc antibody (Jackson ImmunoResearch). Unstained cells and cells stained with secondary antibody alone were used as controls. Cells were washed twice with FACS buffer and analyzed using a BD FACS Canto system. Geometric mean fluorescence intensities (MFI) were fitted using non-linear regression analysis with one site specific binding equation on GraphPad Prism (GraphPad Software; La Jolla, CA).

[2] = system: primary human keratinocytes; test: ADC cell killing on primary adult human keratinocytes (WST-8); format: cell-based; conditions: Table 30, 120 hours, read-out: Keratinocyte Killing EC50
Procedure: To evaluate the cytotoxicity effects of the ADC on the adult primary keratinocytes, a total of 2000 keratinocytes in a volume of 50 microliters were seeded in a 96-well flat bottom cell culture plate coated with keratinocyte coating matrix (Thermo Fisher Scientific) the day before the actual assay starts. ADCs were formulated at 2× starting concentration in cell culture medium and filtered through SpinX 0.22 micron cellulose acetate filtered 2 mL centrifuge tubes (Corning Costar). Filter sterilized samples were serial diluted (1:3) under sterile conditions and added onto cells in triplicates. Plates were cultured at 37° C. in a CO2 incubator for 120 hours. For cell viability measurement, 10 microliters of WST-8 reagent (VWR) were added into each well and plates were incubated at 37° C. in a CO2 incubator for 4 hours. […] Data was fitted with non-linear regression analysis, using log (inhibitor) vs. response, variable slope, 4-parameter fit equation using GraphPad Prism. Data was expressed as % relative cell viability vs. dose of free linker-warhead or ADC in nanomolar with error bars indicating the Standard Deviation (SD) of the triplicates.

T1 sequence (P13726 33-295): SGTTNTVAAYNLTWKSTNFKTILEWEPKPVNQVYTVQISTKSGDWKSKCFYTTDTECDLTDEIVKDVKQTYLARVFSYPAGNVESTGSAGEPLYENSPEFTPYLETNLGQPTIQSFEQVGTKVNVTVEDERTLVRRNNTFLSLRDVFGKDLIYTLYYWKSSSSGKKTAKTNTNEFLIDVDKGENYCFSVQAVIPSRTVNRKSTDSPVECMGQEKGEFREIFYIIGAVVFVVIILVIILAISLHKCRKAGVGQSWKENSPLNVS
Sequence of cynomolgus TF (as listed by the source): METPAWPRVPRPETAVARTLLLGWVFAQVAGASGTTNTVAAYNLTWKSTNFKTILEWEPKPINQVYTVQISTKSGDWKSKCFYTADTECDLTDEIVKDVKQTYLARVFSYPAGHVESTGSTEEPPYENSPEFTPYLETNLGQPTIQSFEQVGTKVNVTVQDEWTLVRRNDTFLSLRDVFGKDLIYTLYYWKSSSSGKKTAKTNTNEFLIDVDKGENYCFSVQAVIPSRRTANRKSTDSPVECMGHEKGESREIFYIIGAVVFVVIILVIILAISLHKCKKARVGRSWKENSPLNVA

Biacore cynomolgus TF kinetics ka (cynomolgus TF): 72400 M⁻¹ s⁻¹ | Biacore cynomolgus TF kinetics kd (cynomolgus TF): 0.00113 s⁻¹ | Biacore human TF kinetics ka (human TF): 57200 M⁻¹ s⁻¹ | Biacore human TF kinetics kd (human TF): 0.000418 s⁻¹
B1: 37 (antibody)
heavy: MEVQLVESGGGLVQPGGSLRLSCAASGFSISSYDMSWVRQAPGKGLEWIGIIGSNGRTYYPDSVKGRFTISRDNSKNTVTLQMNSLRAEDTAVYYCARGLYDGTGNIWGQGTLVTVSSASTKGPSVFPLAPSSKSTSGGTAALGCLVKDYFPEPVTVSWNSGALTSGVHTFPAVLQSSGLSLSSVVTVPSSSLGTQTYICNVNHKPSNTKVDKKVEPKSCDKTHTCPPCPAPELLGGPSVFLFPPKPKDTLMISRTPEVTCVVVDVSHEDPEVKFNWYVDGVEVHNAKTKPREEQYNSTYRVVSVLTVLHQDWLNGKEYKCKVSNKALPAPIEKTISKAKGQPREPQVYTLPPSREEMTKNQVSLTCLVKGFYPSDIAVEWESNGQPENNYKTTPPVLDSDGSFLYSKLTVDKSRWQQGNVFSCSVMHEALHNHYTQKSLSLSPGK
light: MELVMTQSPPTLSLSPGERVTLSCRASQSVYGNNWLSWYQQKPGQAPRLLIYGASKLATSIPARFSGSGSGTQFTLTISSLQPEDFAVYYCQGTYYSGDWYFAFGQGTKVEIKRTVAAPSVFIFPPSDEQLKSGTASVVCLLNNFYPREAKVQWKVDNALQSGNSQESVTEQDSKDSTYSLSSTLTLSKADYEKHKVYACEVTHQGLSSPVTKSFNRGEC
modifications: pAzMeF at Y180/F404; drug conjugate
Keratinocyte Binding Bmax [1]: 151831 | HEK293T Bmax (MFI) (HEK293T): 1062 MFI | EC50 [2]: > 100 nM
